From publication PMC11233452

Target: T1, PsrA (Pseudomonas aeruginosa PAO1) (UniProt Q9HZJ9)
T1 sequence: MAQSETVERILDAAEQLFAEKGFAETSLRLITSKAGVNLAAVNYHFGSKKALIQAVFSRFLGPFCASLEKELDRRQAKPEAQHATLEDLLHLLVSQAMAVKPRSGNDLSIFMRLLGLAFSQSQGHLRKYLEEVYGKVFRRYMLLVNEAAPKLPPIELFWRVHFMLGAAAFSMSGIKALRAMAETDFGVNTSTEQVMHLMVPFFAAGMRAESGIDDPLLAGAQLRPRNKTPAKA
Assay: EMSA

Sequence: CGCTTCCCTTGATCGGGTCAGGTTGCCGCTACTGTGGAAGAAGCGTCGAGGACTCGATAGATAGCGCCCGAGTGTTTCAACTTGTCTTCTGGATGACGTTTTCATCGGGGAAACCTCCCGTCGGTCAGTGAAGCGCAAGGGCTGGCGTGCGAGGGTGGAATCGGCCGCCGGCTCGCTTTCTGCGCGGCGGGCGCACGGCACGGGGAGTCGTCGTTTTGGAGGTGAGGGATGACGGCTCTGTTTCAGGA (double strand) [PmvfR 223-470 bp]
- binding: no binding

Sequence: TGGCGATGGGCCGACAGTGAACCCGGGGACCAGGTGTGACTGGGTATTCAGTTCGCATAAAATGTGATCTAGATCACATTTAAACGTTTGCTTACCCTCTAGGACGGGTATCGTACTAGGTGCATCAAACGCTGCGGTCTATTGTTAAGTGGGACTGAAATGTGCCTTTCCGGCACAACGCCAACTCTATAG (double strand) [PlasR 153-344 bp]
- binding: binds

Sequence: CCTGTCGGCGTTTCATGGAATTGTCACAACCGCACAGTATCGCTTGCGGTAAAGCGGCCCAGGTGGTCGAACGTTGTCATAGGGAGGGGGATGCTCGATGGCTGAAGGCTGCGTCCTGAACGGTGCTGGCATAACAGATAGGGTTGCCATGATTTTGCCGTATCGGCAAGGCTGCGCGCTTGACAGCGTCATACCCCGGGCCAATTCTGCTGTGATGCATTTTATCGATCAGGGCTTACTGCAATGAGGAATGACGGAGGCTTTTTGCTGTGGTGGGACGGTTTGCGTAGCGAGATG (double strand) [PrhlR 258-544 bp]
- binding: no binding

Sequence: GCGCACGGCACGGGGAGTCGTCGTTTTGGAGGTGAGGGATGACGGCTCTGTTTCAGGATATTTTTATAATTATGTGAAAGAAGAGCTTATTTCAACGAAATATGTTTCATATTGCTCGTAAATTCGACGAAAAGAAAATCCGGATATTTACCGGTTATTTAACGTTAATACCAAGGGCCTAATACCAAAGTATTAACGCTGGCATGCCGGCATGTCGTGTTCGGTCGTGGAGCGAGCCGAGCCAGGAACGGTTCTAAGAAACGA (double strand) [PmvfR 17-280 bp]
- binding: no binding

Sequence: TGTGCGGTTGTGACAATTCCATGAAACGCCGACAGGCCGCCGCCATGGCCGGGTCCTCGAGCAAGCGCCACAGCGCCCCGCGCAACTCCTGCTCGCGCAACGGCACGCCCAGGCGCATCCCGCAGCCGAGCCGGACCAGCCGTTCGGCATTGTCGAACTGGTCGTGGGCACAGGGCAGCAGCACCTGCGGCACCCCCGCCGCCAAGGCTAGGCTCATGGCGCCGATACCGCCCGGATGGACCAGCCCGGCGCACGATGGCAGCAAGGCTCCCAGTGGCGCGTA (double strand) [PrhlR 11-293 bp]
- binding: no binding
